The values below come from the supplement of paper PMC11246515.

± gives the standard deviation of the averaged measurements.

A short description of this series: total protein half-life in vivo (active degradation + dilution); higher = more stable protein.
Where [1] appears, read: E. coli NCM3722 delta-clpP delta-lon delta-hslV, growth: N-lim chemostat, doubling time 6 h.
[2] abbreviates: wild type E. coli NCM3722, growth: P-lim chemostat, doubling time 6 h.
Setting [3] is: wild type E. coli NCM3722, growth: P-lim chemostat, doubling time 12 h.
[4] abbreviates: E. coli NCM3722 delta-clpP, growth: N-lim chemostat, doubling time 6 h.
Where [5] appears, read: E. coli NCM3722 delta-hslV, growth: N-lim chemostat, doubling time 6 h.
The mark [6] stands for this setting: E. coli NCM3722 delta-lon, growth: N-lim chemostat, doubling time 6 h.
Where [7] appears, read: E. coli NCM3722 delta-smpB, growth: N-lim chemostat, doubling time 6 h.
Where [8] appears, read: wild type E. coli NCM3722, growth: C-lim chemostat, doubling time 3 h.
The mark [9] stands for this setting: wild type E. coli NCM3722, growth: C-lim chemostat, doubling time 6 h.
Setting [10] is: wild type E. coli NCM3722, growth: C-lim chemostat, doubling time 12 h.
Setting [11] is: wild type E. coli NCM3722, growth: N-lim chemostat, doubling time 6 h.
The mark [12] stands for this setting: wild type E. coli NCM3722, growth: N-lim chemostat, doubling time 12 h.

On to “MTTRQHSSFAIVFILGLLAMLMPLSIDMYLPALPVISAQFGVPAGSTQMTLSTYILGFALGQLIYGPMADSFGRKPVVLGGTLVFAAAAVACALANTIDQLIVMRFFHGLAAAAASVVINALMRDIYPKEEFSRMMSFVMLVTTIAPLMAPIVGGWVLVWLSWHYIFWILALAAILASAMIFFLIKETLPPERRQPFHIRTTIGNFAALFRHKRVLSYMLASGFSFAGMFSFLSAGPFVYIEINHVAPENFGYYFALNIVFLFVMTIFNSRFVRRIGALNMFRSGLWIQFIMAAWMVISALLGLGFWSLVVGVAAFVGCVSMVSSNAMAVILDEFPHMAGTASSLAGTFRFGIGAIVGALLSLATFNSAWPMIWSIAFCATSSILFCLYASRPKKR”, for which the “total protein half-life in vivo” value by setting is: under setting [1], 7.89 h; under setting [2], 6.0641 ± 0.0035 h; under setting [3], 11.8 h.
In the case of “MPVAHVALPVPLPRTFDYLLPEGMTVKAGCRVRVPFGKQQERIGIVVSVSDASELPLNELKAVVEVLDSEPVFTHSVWRLLLWAADYYHHPIGDVLFHALPILLRQGRPAANAPMWYWFATEQGQAVDLNSLKRSPKQQQALAALRQGKIWRDQVATLEFNDAALQALRKKGLCDLASETPEFSDWRTNYAVSGERLRLNTEQATAVGAIHSAADTFSAWLLAGVTGSGKTEVYLSVLENVLAQGKQALVMVPEIGLTPQTIARFRERFNAPVEVLHSGLNDSERLSAWLKAKNGEAAIVIGTRSALFTPFKNLGVIVIDEEHDSSYKQQEGWRYHARDLAVYRAHSEQIPIILGSATPALETLCNVQQKKYRLLRLTRRAGNARPAIQHVLDLKGQKVQAGLAPALITRMRQHLQADNQVILFLNRRGFAPALLCHDCGWIAECPRCDHYYTLHQAQHHLRCHHCDSQRPVPRQCPSCGSTHLVPVGLGTEQLEQTLAPLFPGVPISRIDRDTTSRKGALEQQLAEVHRGGARILIGTQMLAKGHHFPDVTLVALLDVDGALFSADFRSAERFAQLYTQVAGRAGRAGKQGEVVLQTHHPEHPLLQTLLYKGYDAFAEQALAERRMMQLPPWTSHVIVRAEDHNNQHAPLFLQQLRNLILSSPLADEKLWVLGPVPALAPKRGGRWRWQILLQHPSRVRLQHIINGTLALINTIPDSRKVKWVLDVDPIEG”, the “total protein half-life in vivo” value under setting [1] worked out at 5.492 ± 0.011 h; the “total protein half-life in vivo” value under setting [4] was 6.24 ± 0.23 h; the “total protein half-life in vivo” value under setting [5] was 5.9 ± 0.067 h; the “total protein half-life in vivo” value under setting [6] stood at 5.89 ± 0.2 h; the “total protein half-life in vivo” value under setting [7] amounted to 5.23 ± 0.45 h; the “total protein half-life in vivo” value under setting [8] worked out at 2.86 ± 0.03 h. For the same sequence, the “total protein half-life in vivo” value was found to be 5.85 ± 0.21 h under setting [9]; 9.53 ± 1.3 h under setting [10]; 5.35 ± 0.074 h under setting [11]; 12.2 ± 1 h under setting [12]; 6.13 ± 0.2 h under setting [2].
Regarding “MFDSLAKAGKYLGQAAKLMIGMPDYDNYVEHMRVNHPDQTPMTYEEFFRERQDARYGGKGGARCC [P0AAS9]”, the “total protein half-life in vivo” value is, setting by setting: under setting [8], 1.43 h; under setting [9], 1.49 ± 0.45 h; under setting [10], 1.47 h.
On to “MIYPDEAMLYAPVEWHDCSEGFEDIRYEKSTDGIAKITINRPQVRNAFRPLTVKEMIQALADARYDDNIGVIILTGAGDKAFCSGGDQKVRGDYGGYKDDSGVHHLNVLDFQRQIRTCPKPVVAMVAGYSIGGGHVLHMMCDLTIAADNAIFGQTGPKVGSFDGGWGASYMARIVGQKKAREIWFLCRQYDAKQALDMGLVNTVVPLADLEKETVRWCREMLQNSPMALRCLKAALNADCDGQAGLQELAGNATMLFYMTEEGQEGRNAFNQKRQPDFSKFKRNP [P0ABU0]”, for which the “total protein half-life in vivo” value runs as follows: under setting [1], 4.73 ± 0.74 h; under setting [4], 4.048 ± 0.036 h; under setting [5], 4.15 ± 0.17 h; under setting [6], 4.48 ± 0.44 h; under setting [7], 3.8 ± 0.061 h; under setting [8], 2.9 ± 0.51 h. For the same sequence, the “total protein half-life in vivo” value is, setting by setting: under setting [9], 5.55 ± 0.53 h; under setting [10], 9.64 ± 0.8 h; under setting [11], 3.88 ± 0.12 h; under setting [12], 6.07 ± 0.33 h; under setting [2], 5.58 ± 0.069 h; under setting [3], 10.85 ± 0.06 h.
Regarding “MQKQAELYRGKAKTVYSTENPDLLVLEFRNDTSAGDGARIEQFDRKGMVNNKFNYFIMSKLAEAGIPTQMERLLSDTECLVKKLDMVPVECVVRNRAAGSLVKRLGIEEGIELNPPLFDLFLKNDAMHDPMVNESYCETFGWVSKENLARMKELTYKANDVLKKLFDDAGLILVDFKLEFGLYKGEVVLGDEFSPDGSRLWDKETLEKMDKDRFRQSLGGLIEAYEAVARRLGVQLD [P0A7D7]”, the “total protein half-life in vivo” value is, setting by setting: under setting [1], 4.82 ± 0.52 h; under setting [4], 5.09 ± 0.82 h; under setting [5], 4.79 ± 0.36 h; under setting [6], 5.32 ± 0.32 h; under setting [7], 4.74 ± 0.15 h; under setting [8], 3.26 ± 0.21 h. Besides, the “total protein half-life in vivo” value is, setting by setting: under setting [9], 5.98 ± 0.26 h; under setting [10], 10.8 ± 0.71 h; under setting [11], 4.61 ± 0.12 h; under setting [12], 8 ± 0.35 h; under setting [2], 5.28 ± 0.41 h; under setting [3], 11.8 ± 0.46 h.
Regarding “MRVLVVEDNALLRHHLKVQIQDAGHQVDDAEDAKEADYYLNEHIPDIAIVDLGLPDEDGLSLIRRWRSNDVSLPILVLTARESWQDKVEVLSAGADDYVTKPFHIEEVMARMQALMRRNSGLASQVISLPPFQVDLSRRELSINDEVIKLTAFEYTIMETLIRNNGKVVSKDSLMLQLYPDAELRESHTIDVLMGRLRKKIQAQYPQEVITTVRGQGYLFELR”, the “total protein half-life in vivo” value runs as follows: under setting [1], 4.69 ± 0.2 h; under setting [4], 4.2 ± 0.46 h; under setting [5], 4.056 ± 0.01 h; under setting [6], 4.7 ± 0.21 h; under setting [7], 4.19 ± 0.29 h; under setting [8], 2.85 ± 0.13 h. The “total protein half-life in vivo” value was 5.04 ± 0.12 h under setting [9]; 8.69 ± 1 h under setting [10]; 4.33 ± 0.29 h under setting [11]; 7.55 ± 0.24 h under setting [12]; 5.134 ± 0.051 h under setting [2]; 8.98 ± 0.26 h under setting [3].
“MSKTFARSSLCALSMTIMTAHAAEPPTNLDKPEGRLDIIAWPGYIERGQTDKQYDWVTQFEKETGCAVNVKTAATSDEMVSLMTKGGYDLVTASGDASLRLIMGKRVQPINTALIPNWKTLDPRVVKGDWFNVGGKVYGTPYQWGPNLLMYNTKTFPTPPDSWQVVFVEQNLPDGKSNKGRVQAYDGPIYIADAALFVKATQPQLGISDPYQLTEEQYQAVLKVLRAQHSLIHRYWHDTTVQMSDFKNEGVVASSAWPYQANALKAEGQPVATVFPKEGVTGWADTTMLHSEAKHPVCAYKWMNWSLTPKVQGDVAAWFGSLPVVPEGCKASPLLGEKGCETNGFNYFDKIAFWKTPIAEGGKFVPYSRWTQDYIAIMGGR”: the “total protein half-life in vivo” value was determined as 5.24 ± 0.43 h under setting [1]; 5.67 ± 0.8 h under setting [4]; 7.1 ± 0.7 h under setting [5]; 7.128 ± 0.054 h under setting [6]; 5.71 ± 0.53 h under setting [7]; 3.27 ± 0.29 h under setting [8]. In addition, the “total protein half-life in vivo” value was 7.18 ± 0.46 h under setting [9]; 13.3 ± 0.99 h under setting [10]; 6.37 ± 0.074 h under setting [11]; 14.3 ± 0.99 h under setting [12]; 6.9 ± 1 h under setting [2]; 13.8 ± 0.29 h under setting [3].
